Assay results taken from patent US20240010680A1, “PEPTIDE DISINFECTANT FOR PREVENTING CORONAVIRUSES” (Xiamen University, priority 2021, published 2024).

Biological target: hACE2-His purified protein (human (printed as hACE2)) (UniProt Q9BYF1)
Sequence (Q9BYF1 18-740 limits assumed): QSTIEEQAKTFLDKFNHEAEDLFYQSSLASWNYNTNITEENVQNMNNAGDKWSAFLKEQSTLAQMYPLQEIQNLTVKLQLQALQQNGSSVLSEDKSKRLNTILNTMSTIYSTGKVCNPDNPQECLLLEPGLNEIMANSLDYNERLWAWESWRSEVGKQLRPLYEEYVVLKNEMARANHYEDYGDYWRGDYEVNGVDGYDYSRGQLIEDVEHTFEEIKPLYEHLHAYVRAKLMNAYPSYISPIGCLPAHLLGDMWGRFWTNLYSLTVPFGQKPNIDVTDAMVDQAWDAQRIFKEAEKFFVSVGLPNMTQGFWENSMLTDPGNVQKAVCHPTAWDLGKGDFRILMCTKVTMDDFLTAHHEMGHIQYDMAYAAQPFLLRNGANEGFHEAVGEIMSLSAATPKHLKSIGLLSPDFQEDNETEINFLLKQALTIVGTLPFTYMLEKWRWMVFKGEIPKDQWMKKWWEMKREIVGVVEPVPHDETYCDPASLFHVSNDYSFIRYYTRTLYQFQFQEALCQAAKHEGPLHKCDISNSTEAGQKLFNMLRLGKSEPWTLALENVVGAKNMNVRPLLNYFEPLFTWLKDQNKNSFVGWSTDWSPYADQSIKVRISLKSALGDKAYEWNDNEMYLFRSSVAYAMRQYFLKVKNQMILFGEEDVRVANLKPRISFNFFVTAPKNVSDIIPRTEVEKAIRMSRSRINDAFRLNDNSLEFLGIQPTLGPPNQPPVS

**Q.** For S1-HA purified protein (ligand), which Relative brightness value is on record?
**A.** Its Relative brightness value is 100%.
